US20180282690A1, “METHOD AND CULTURE MEDIUM FOR EX VIVO CULTURING OF EPIDERMIS-DERIVED STEM CELLS” (Max-Planck-Gesellschaft zur Förderung der Wissenchaften e.V., priority 2015, published 2018)

B1: FGF-7: human recombinant FGF-7 (protein, UniProt P21781 32-194, looked up)
Fibroblast growth factor 7: CNDMTPEQMATNVNCSSPERHTRSYDYMEGGDIRVRRLFCRTQWYLRIDKRGKVKGTQEMKNNYNIMEIRTVAVGIVAIKGVESEFYLAMNKEGKLYAKKECNEDCNFKELILENHYNTYASAKWTHNGGEMFVALNQKGIPVRGKKTKKEQKTAHFLPMAIT
B2: FGF-10: human recombinant FGF-10 (protein, UniProt O15520 38-208, looked up)
Fibroblast growth factor 10: QALGQDMVSPEATNSSSSSFSSPSSAGRHVRSYNHLQGDVRWRKLFSFTKYFLKIEKNGKVSGTKKENCPYSILEITSVEIGVVAVKAINSNYYLAMNKKGKLYGSKEFNNDCKLKERIEENGYNTYASFNWQHNGRQMYVALNGKGAPRRGQKTRRKNTSAHFLPMVVHS
B3: FGF-18: human recombinant FGF-18 (protein, UniProt O76093 28-207, looked up)
Fibroblast growth factor 18: EENVDFRIHVENQTRARDDVSRKQLRLYQLYSRTSGKHIQVLGRRISARGEDGDKYAQLLVETDTFGSQVRIKGKETEFYLCMNRKGKLVGKPDGTSKECVFIEKVLENNYTALMSAKYSGWYVGFTKKGRPRKGPKTRENQQDVHFMKRYPKGQPELQKPFKYTTVTKRSRRIRPTHPA

Test system: CD34^+α6^+ HFSCs
Experiment: 3D-ECM culture of mouse keratinocytes, CD34+α6+ HFSCs quantified by flow cytometry
Assay type: cell-based
Details: for percentage of CD34+α6+ HFSCs: vs untreated 3C; for normalized CD34+α6+ content of cultures: day 14 Matrigel; for growth/expansion of CD34+α6+ HFSCs when FGF-2 or VEGF-164 is replaced: in the 3C, YF and/or YV media, compared with FGF-2 / VEGF-164
Method: Keratinocytes were isolated from back skin of mice by incubating skin pieces in 0.8% Trypsin (Gibco) for 50 min at 37° C. After separating the epidermis from the underlying dermis, cells were homogenized, filtered through 70 μm and 45 μm cell strainers (BD Biosciences) and pelleted at 900 rpm for 3 min. For 2D culture of epidermis-derived cells, tissue culture petri dished were coated with a mixture of collagen I (30 μg/ml)+fibronectin (10 μg/ml; both from Millipore) in MEM for 1 h at 37° C. prior to plating of cells. Epidermis-derived cells were suspended in KGM or in FAD medium, and seeded on the coated plastic dishes. Medium was exchanged the next day after initial seeding and thereafter every second day. […] For 3D culture of HFSCs, 8×10^4 cells were resuspended in 40 μl ice-cold 1:1 KGM:Matrigel mixture that was dispensed as a droplet in 24-well cell culture dishes. The suspension was allowed to solidify for 15 min after which it was overlaid with 500 μl of stem cell media. The following media compositions were used: KGM basal medium, medium Y (KGM, 5 μM Y27632, 10 ng/ml human recombinant EGF), medium Y-E (KGM, 5 μM Y27632), medium YV (KGM, 5 μM Y27632, 10 ng/ml human recombinant EGF, 20 ng/ml mouse recombinant VEGF), medium YF (KGM, 5 μM Y27632, 10 ng/ml human recombinant EGF, 20 ng/ml human recombinant FGF-2), 3C (KGM, 5 μM Y27632, 10 ng/ml human recombinant EGF, 20 ng/ml mouse recombinant VEGF, 20 ng/ml human recombinant FGF-2), and 3C-E (KGM, 5 μM Y27632, 20 ng/ml mouse recombinant VEGF, 20 ng/ml human recombinant FGF-2).
For cell passaging and flow cytometry cultured hair follicle stem cells were extracted from Matrigel by mechanical homogenization and incubation in 0.5% Trypsin (Gibco), 0.5 mM EDTA, PBS or Accutase (Gibco) for 10 min at 37° C.
Single cell suspensions prepared from murine back skin (described above) or from cultured cells were rinsed once with KGM and stained with fluorescently labeled antibodies for 30 min on ice. After two washes with FACS Buffer (2% FCS, 2 mM EDTA, PBS) cells were measured in a BD FACS Canto II and data was analyzed using FlowJo software version 10. For purification of cell populations (cell sorting) a BD FACS Aria II or a BD FACS Aria Fusion were used. Cells were sorted in KGM medium at 4′C. Expression of cell surface markers was analyzed on live cells after exclusion of cell doublets and dead cells, respectively.

[1] = cyclopamine 10 μM for 5 days added to 3C cultures
[2] = 3C conditions (Y27632+EGF+FGF+VEGF), vs VEGF-164 or FGF-2 set to 1
[3] = YF conditions (Y27632+EGF+FGF), vs FGF-2 set to 1

| Molecule | normalized CD34+α6+ content of cultures [2] | normalized CD34+α6+ content of cultures [3] | growth/expansion of CD34+α6+ HFSCs when FGF-2 or VEGF-164 is replaced | further results |
| --- | --- | --- | --- | --- |
| COc1cc(-c2cc(-c3cccc(O)c3)cnc2N)cc(OC)c1OC [K02288, 3-[6-amino-5-(3,4,5-trimethoxyphenyl)pyridin-3-yl]phenol, reference compound] |  |  |  | percentage of CD34+α6+ HFSCs (3C conditions 14 days with K02288 10 nM): decrease |
| C[C@@H](N)[C@H]1CC[C@H](C(=O)Nc2ccncc2)CC1.Cl.Cl.O [Y27632, (R)-(+)-trans-4-(1-aminoethyl)-N-(4-Pyridyl)cyclohexanecarboxamide dihydrochloride monohydrate, reference compound] |  |  |  | requirement of ROCK inhibitor for HFSC growth and expansion (3C conditions, from the beginning of the culturing time): essential |
| CC1=C2C[C@H]3[C@@H](CC=C4C[C@@H](O)CC[C@@]43C)[C@@H]2CC[C@]12O[C@@H]1C[C@H](C)CN[C@H]1[C@H]2C [cyclopamine, (2′R,3S,3′R,3′aS,6'S,6aS,6bS,7′aR,11aS,11bR)-1,2,3,3′a,4,4′,5′,6,6′,6a,6b,7,7′,7′a,8,11,11a,11b-Octadecahydro-3′,6′,10,11b-tetramethylspiro[9H-benzo[a]fluorene-9,2′(3′H)-furo[3,2-b]pyridin]-3-ol, reference compound] |  |  |  | proportion of HFSCs in the cultured cell mixture (3C conditions 9 days, then cyclopamine 10 μM for 5 days, flow cytometry day 14): up to 93.6%; total cell numbers [1]: decrease; percentage of CD34+α6+ HFSCs [1]: elevated |
| B1 | perform equally well | perform equally well | Comparable |  |
| B2 | perform equally well | perform equally well | Comparable |  |
| B3 |  |  | Comparable |  |
